# Reference: patent US20230090502
# B1: TEV-protease (New England Biolabs, includes a HIS-tag) (protein)
# chain: GESLFKGPRDYNPISSTICHLTNESDGHTTSLYGIGFGPFIITNKHLFRRNNGTLLVQSLHGVFKVKNTTTLQQHLIDGRDMIIIRMPKDFPPFPQKLKFREPQREERICLVTTNFQTKSMSSMVSDTSCTFPSSDGIFWKHWIQTKDGQCGSPLVSTRDGFIVGIHSASNFTNTNNYFTSVPKNFMELLTNQEAQQWVSGWRLNADSVLWGGHKVFMSKPEEPFQPVKEATQLMNELVYSQ
# Molecular target: Uncleaved SARS-CoV-2 3CLpro (N-terminal 6xHIS-tag followed by TEV-protease cleavage site)
protein,measurement,value
B1,"cleavage of the HIS-tag, SDS-PAGE",Cleavage of the 3CLpro was successful
